Patent US20240067740A1 (NOVAROCK BIOTHERAPEUTICS, published 2024)

T1: human TNFR1 (Homo sapiens, UniProt P19438 30-455)
T1 construct: Stably overexpressed on CHO-K1 cells; also called TNFRSF1A; p55
T1 sequence: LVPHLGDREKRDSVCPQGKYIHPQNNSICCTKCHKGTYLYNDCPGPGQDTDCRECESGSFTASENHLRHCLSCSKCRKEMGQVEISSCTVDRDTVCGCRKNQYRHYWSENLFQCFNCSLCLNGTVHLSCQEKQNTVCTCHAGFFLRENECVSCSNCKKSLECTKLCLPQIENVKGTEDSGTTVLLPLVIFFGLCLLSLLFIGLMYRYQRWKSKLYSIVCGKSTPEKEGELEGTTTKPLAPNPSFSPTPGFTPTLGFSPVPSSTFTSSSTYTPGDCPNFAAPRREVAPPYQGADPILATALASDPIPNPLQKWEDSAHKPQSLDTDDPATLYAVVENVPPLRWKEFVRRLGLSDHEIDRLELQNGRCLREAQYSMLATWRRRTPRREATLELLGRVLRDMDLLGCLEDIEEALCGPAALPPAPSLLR

T2: murine TNFR2 (Mus musculus, UniProt P25119 23-474)
T2 construct: Stably overexpressed on HEK293T cells; also called mouse TNFR2
T2 sequence: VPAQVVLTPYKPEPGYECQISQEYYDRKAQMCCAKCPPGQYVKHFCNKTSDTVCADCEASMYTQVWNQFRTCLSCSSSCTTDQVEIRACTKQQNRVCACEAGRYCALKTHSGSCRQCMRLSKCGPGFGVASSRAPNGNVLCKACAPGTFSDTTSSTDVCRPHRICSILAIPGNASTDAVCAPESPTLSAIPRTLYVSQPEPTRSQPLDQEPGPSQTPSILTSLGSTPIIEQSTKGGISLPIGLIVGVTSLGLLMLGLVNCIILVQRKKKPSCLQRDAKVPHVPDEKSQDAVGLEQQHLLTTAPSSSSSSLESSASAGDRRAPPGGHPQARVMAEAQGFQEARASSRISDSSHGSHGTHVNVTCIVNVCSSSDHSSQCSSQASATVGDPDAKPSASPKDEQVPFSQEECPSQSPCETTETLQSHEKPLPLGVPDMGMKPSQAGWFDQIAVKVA

T3: human TNFR2 (Homo sapiens, UniProt P20333 23-461)
T3 construct: also called hTNFR2; TNFRSF1B
T3 sequence: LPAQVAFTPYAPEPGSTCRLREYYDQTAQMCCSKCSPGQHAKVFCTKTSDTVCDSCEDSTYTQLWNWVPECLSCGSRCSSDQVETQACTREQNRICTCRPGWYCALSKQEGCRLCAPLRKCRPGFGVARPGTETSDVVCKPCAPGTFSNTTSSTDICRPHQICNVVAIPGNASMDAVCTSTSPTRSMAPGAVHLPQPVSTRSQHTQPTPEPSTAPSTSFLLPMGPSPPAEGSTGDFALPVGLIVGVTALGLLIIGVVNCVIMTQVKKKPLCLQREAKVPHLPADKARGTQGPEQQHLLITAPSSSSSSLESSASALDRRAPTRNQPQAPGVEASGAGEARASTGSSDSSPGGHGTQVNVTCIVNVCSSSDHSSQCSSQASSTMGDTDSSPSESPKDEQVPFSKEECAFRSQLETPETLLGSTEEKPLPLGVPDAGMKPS

T4: cynomolgus TNFR2 (Macaca fascicularis, UniProt P20333 23-461 (human entry))
T4 construct: Stably overexpressed on HEK293T cells; also called cynoTNFR2
T4 chain: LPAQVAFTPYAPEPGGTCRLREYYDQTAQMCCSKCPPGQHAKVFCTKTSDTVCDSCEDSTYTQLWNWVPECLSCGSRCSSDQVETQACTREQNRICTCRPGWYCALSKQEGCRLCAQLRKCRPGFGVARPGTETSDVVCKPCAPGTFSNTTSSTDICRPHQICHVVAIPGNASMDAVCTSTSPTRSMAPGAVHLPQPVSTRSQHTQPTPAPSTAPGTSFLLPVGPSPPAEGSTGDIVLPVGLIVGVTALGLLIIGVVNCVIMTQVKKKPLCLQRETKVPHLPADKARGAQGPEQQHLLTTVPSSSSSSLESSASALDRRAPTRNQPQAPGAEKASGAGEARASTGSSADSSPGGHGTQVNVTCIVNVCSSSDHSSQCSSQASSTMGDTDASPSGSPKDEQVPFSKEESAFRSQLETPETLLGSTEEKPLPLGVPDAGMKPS


How the values were obtained:
human TNFR1 = biological target: T1, human TNFR1; assay: flow cytometry on CHO-K1 cells stably overexpressing human TNFR1
Procedure: (§1) HEK293T cells stably overexpressing human TNFR2 or CHO-K1 stably overexpressing human TNFR1 were aliquoted in FACS buffer and incubated with serial dilutions of TNFR2 antibody. […] Following an incubation, the reactions were subsequently analyzed by flow cytometry. […] The concentration-response was fitted to a four-parameter logistic non-linear regression model in the GraphPad Prism software to obtain the EC₅₀ values.

murine TNFR2 = biological target: T2, murine TNFR2; assay: flow cytometry on HEK293T cells stably overexpressing murine TNFR2
Procedure: (§2) HEK293T cells stably overexpressing human TNFR2, cynomolgus TNFR2, or murine TNFR2 were aliquoted in FACS buffer and incubated with serial dilutions of TNFR2 antibody for 2 hours.
(§3) The concentration-response was fitted to a four-parameter logistic non-linear regression model in the GraphPad Prism software to obtain the EC₅₀ values.

human TNFR2 [1] = biological target: T3, human TNFR2; assay: flow cytometry on HEK293T cells stably overexpressing human TNFR2, Alexa Fluor 647 secondary antibody
Procedure: as §1

human TNFR2 [2] = biological target: T3, human TNFR2; assay: binding to cells stably overexpressing human TNFR2, serial dilutions, flow cytometry or imaging
Procedure: as §1

cynomolgus TNFR2 = biological target: T4, cynomolgus TNFR2; assay: flow cytometry on HEK293T cells stably overexpressing cynomolgus TNFR2
Procedure: as §2, §3

human TNFR2 [3] = biological target: T3, human TNFR2; assay: image binding assay on adherent HEK293T cells overexpressing human TNFR2 (384-well plate)
Procedure: as §1

Row | binding result (human TNFR1) | EC50 (read off the curve) (human TNFR2 [1]) [nM] | EC50 (human TNFR2 [2]) [nM] | binding result (cynomolgus TNFR2) | EC50 (read off the curve) (human TNFR2 [3]) [nM] | Binder | binding result (murine TNFR2)
1 | no binding (tested: up to 10 µg/mL) | ~0.4 | 0.38 | – | – | R2_mAb-3 (antibody, V domains shown, also called R2-3) VH: QVQLQESGPGLVKPSETLSLTCTVSGGSISSYYWSWIRQAPGKGLEWIGYIYYSGSTNYNPSLKSRVTISVDTSKNQFSLKLSSVTAADTAVYYCARDDGSSDYGMDVWGQGTTVTVSS VL: AIQLTQSPSSLSASVGDRVTITCRASQGISSALAWYQQKPGKAPKLLIYDASSLESGVPSRFTGSGTDFTLTISSLQPEDFATYYCQQFNNYMYTFGQGTKLEIK | no binding (tested: up to 10 (unit cut off in the text))
2 | no binding (tested: up to 10 µg/mL) | ~0.1 | 0.1 | binds | – | R2_mAb-1 (antibody, V domains shown, also called R2-1) VH: QVQLVESGGGVVQPGRSLRLSCAASGFTFSSYGMHWVRQAPGKGLEWVAVIWFDEDNKDYADSVKGRFTISRDNSKNTLYLQMSSLRAEDTAVYYCARDNDILTGYYYYYGMDVWGQGTTVTVSS VL: DIQLTQSPSFLSASVGDRVTITCRASQDISSYLAWYQQKPGKAPKLLIYAASTLQSGVPSRFSGSGSGTEFTLTISSLQPEDFATYYCQQLNSYPPTFGQGTKVEIK | no binding (tested: up to 10 (unit cut off in the text))
3 | no binding (tested: up to 10 µg/mL) | ~0.1 | 0.11 | binds | ~0.2 | R2_mAb-4 (antibody, V domains shown, also called R2-4) VH: QVQLVQSGAEVRKPGASVKVSCKASGYTFTSYSVTWVRQAPGQGLEWMGWINAFSGNTHYAQNLQDRVTMTTDTSTSTAYMELRSLRSDDTAVYYCAREEGSGSYEDYYGMDVWGQGTTVTVSS VL: not shown | no binding (tested: up to 10 (unit cut off in the text))
4 | no binding (tested: up to 10 µg/mL) | ~0.1 | 0.1 | binds | ~0.1 | R2_mAb-5 (antibody, V domains shown, also called R2-5) VH: QVQLVQSGAEVKKPGASVTVSCKASGYTFSTYGIIWVRQAPGQGLEWMGWISAFNGNANSAQKLQDRVTMTTDTSTSTAYMELRSLRSDDTAVYYCARGEDFFDYWGQGTLVTVSS VL: DIVMTQTPLSSPVTLGQPASISCRSSQSLVHSDGNTYLSWLQQRPGQPPRLLIYKVSSRFSGVPDRFSGSGAGTDFTLKISRVEAEDVGVYYCTQSTQFPFTFGRGTKLEIK | no binding (tested: up to 10 (unit cut off in the text))
5 | no binding (tested: up to 10 µg/mL) | ~0.1 | 0.14 | binds | – | R2_mAb-6 (antibody, V domains shown, also called R2-6) VH: QVQLVQSGAEVKKPGASVKVSCKASGYTFLSYGLSWVRQAPGQGLEWMGWINAYNGNTNYAQNLQDRVTMTTDTSTSTAYMELRSLRSDDMAVYYCARWDILTAYYSSDAFDIWGQGTMVTVSS VL: DIVMTQTPLSSPVTLGQPASISCRSSQSLVHSDGNTYLNWLQQRPGQPPRLLIYKVSNRFSGVPDRFSGSGAGTDFTLKISRVEAEDVGVYYCTQTTQFPITFGQGTRLEIK | no binding (tested: up to 10 (unit cut off in the text))
6 | no binding (tested: up to 10 µg/mL) | ~0.3 | 0.35 | binds | – | R2_mAb-2 (antibody, V domains shown, also called R2-2) VH: QVQLVQSGPEVKKPGASVKVSCKASGYTFTNYGISWVRQAPGQGLEWMGWINAYNGNTNYAQKLQGRVTMTTDTSTSTAYMELRSLRSDDTAVYYCARDGGYGSGTYHNDYYYYYGMDVWGQGTTVTVSS VL: EIVLTQSPDFQSMTPEEKVTITCRASQSIGSNLHWYQQKPDQSPKLLIKFASQSISGVPSRFSGSGSGTDFTLTINSLEAEDAATYYCHQSSSLPFTFGPGTKVDIK | no binding (tested: up to 10 (unit cut off in the text))
